± gives the uncertainty stated by the source.
Experiment: self-splicing fitness, log relative to wild type (ln ratio); higher = more splicing; Tetrahymena group I intron in knt gene, E. coli kanamycin selection, DiMSum; sequences stand for … in CUCUCU…GGAGGGAAAAGUUAUCAGGCAUGCACCUGGUAGCUAGUCUUUAAACCAAUAGAUUGCAUCGGUUUAAAAGGCAAGACCGUCAAAUUGCGGGAAAGGGGUCAACAGCCGUUCAGUACCAAGUCUCAGGGGAAACUUUGAGAUGGCCUUGCAAAGGGUAUGGUAAUAAGCUGACGGACAUGGUCCUAACCACGCAGCCAAGUCCUAAGUCAACAGAUCUUCUGUUGAUAUGGAUGCAGUUCACAGACUAAAUGUCGGUCGGGGAAGAUGUAUUCUUCUCAUAAGAUAUAGUCGGACCUCUCCUUAAUGGGAGCUAGCGGAUGAAGUGAUGCAACACUGGAGCCGCUGGGAACUAAUUUGUAUGCGAAAGUAUAUUGAUUAGUUUUGGAGUACUCGUGGUCG
Outline: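 Fitness was computed with DiMSum as the error-weighted combination of replicate fold changes, kanamycin versus none, each normalised to wild type. The library randomised all eight intron nucleotides of the P1ex region, with the intron placed in the knt kanamycin-resistance gene on pET-22b(+) in E. coli BL21(DE3). Six replicate transformations were grown overnight at 37°C or 30°C on LB agar with or without 25 μg/mL kanamycin, plus 100 μg/mL carbenicillin, 50 μM IPTG and 0.2% rhamnose. Pooled colonies were amplicon-sequenced on an Illumina HiSeq 2500.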

Sequence | self-splicing fitness (ln) (30 °C) | self-splicing fitness (ln) (37 °C)
UUUAAGCAAUAUUACGACUA | 0.0508 ± 0.11 | -0.0992 ± 0.096
UUUAAGCAAUAUUACGAGAA | -1.62 ± 0.33 | -0.298 ± 0.28
UUUAAGCAAUAUUACGAGAC | -2.33 ± 0.48 | -2.63 ± 0.33
UUUAAGCAAUAUUACGAGGA | -1.85 ± 0.13 | -1.22 ± 0.15
UUUAAGCAAUAUUACGAUGG | -1.05 ± 0.11 | -0.525 ± 0.14
UUUAAGCAAUAUUACGCAGA | -1.64 ± 0.16 | -1.93 ± 0.14
UUUAAGCAAUAUUACGCAUC | -2.75 ± 0.36 | -2.25 ± 0.32
UUUAAGCAAUAUUACGCCGA | -0.292 ± 0.13 | 0.0683 ± 0.15
UUUAAGCAAUAUUACGCUCU | -1.26 ± 0.098 | -0.539 ± 0.11
UUUAAGCAAUAUUACGGCAA | -0.171 ± 0.093 | 0.00377 ± 0.11
UUUAAGCAAUAUUACGGCGA | 0.000504 ± 0.075 | 0.503 ± 0.1
UUUAAGCAAUAUUACGGCUA | -0.342 ± 0.084 | 0.291 ± 0.1
UUUAAGCAAUAUUACGGUCU | -2.5 ± 0.14 | -1.66 ± 0.15
UUUAAGCAAUAUUACGUCAA | -1.43 ± 0.16 | -0.273 ± 0.14
UUUAAGCAAUAUUACGUCCA | -1.08 ± 0.22 | -0.324 ± 0.27
UUUAAGCAAUAUUACGUGCA | -1.06 ± 0.12 | -0.0552 ± 0.15
UUUAAGCAAUAUUACGUUAA | -1.68 ± 0.23 | -1.38 ± 0.18
UUUAAGCAAUAUUACGUUCA | -1.08 ± 0.11 | -0.403 ± 0.12
UUUCAGCAAUAUUACGAACA | -0.771 ± 0.13 | 0.793 ± 0.22

Sequence | self-splicing fitness (ln) (30 °C) | self-splicing fitness (ln) (37 °C)
UUUCAGCAAUAUUACGAACU | -1.23 ± 0.092 | 0.244 ± 0.1
UUUCAGCAAUAUUACGAAGA | -0.653 ± 0.24 | -0.0649 ± 0.25
UUUCAGCAAUAUUACGAAGG | -2.18 ± 0.15 | -2.34 ± 0.28
UUUCAGCAAUAUUACGAAUG | -0.511 ± 0.086 | -0.0774 ± 0.12
UUUCAGCAAUAUUACGAGAU | – | -2.72 ± 0.48
UUUCAGCAAUAUUACGAUAC | -2.17 ± 0.25 | -2.02 ± 0.26
UUUCAGCAAUAUUACGAUAG | -0.323 ± 0.088 | -0.323 ± 0.11
UUUCAGCAAUAUUACGAUCC | – | -0.887 ± 0.39
UUUCAGCAAUAUUACGAUGC | -3.68 ± 0.28 | -2.01 ± 0.29
UUUCAGCAAUAUUACGCCAA | -0.879 ± 0.18 | -0.379 ± 0.18
UUUCAGCAAUAUUACGCGCA | -0.226 ± 0.11 | 0.569 ± 0.12
UUUCAGCAAUAUUACGCUAC | -2.95 ± 0.22 | -2.39 ± 0.34
UUUCAGCAAUAUUACGGACG | -0.348 ± 0.18 | 0.598 ± 0.23
UUUCAGCAAUAUUACGGAGC | -3.25 ± 0.36 | -3.28 ± 0.43
UUUCAGCAAUAUUACGGCAG | -0.779 ± 0.17 | 0.0981 ± 0.19
UUUCAGCAAUAUUACGGCGG | -1.72 ± 0.15 | -0.833 ± 0.18
UUUCAGCAAUAUUACGGCGU | -2.37 ± 0.14 | -0.454 ± 0.14
UUUCAGCAAUAUUACGGGAU | -2.73 ± 0.12 | -1.64 ± 0.13

Source: the supplement of paper PMC7877785
